Laboratory results as given in US20250074957A1 (GENERAL HOSPITAL, published 2025).

B1: minCRBN3-NLuc (other, not shown: large carriers)
chain: AGEGDQQDAAHNMGNHLPLLPESEEEDEMEVEDQDSKEAKKPNIINFDTSLPTSHTYLGADMEEFHGRTLHDDDSCQVIPVLPQVMMILIPGQTLPLQLFHPQEVSMVRNLIQKDRTFAVLAYSNVQEREAQFGTTAEIYAYREEQDFGIEIVKVKAIGRQRFKVLELRTQSDGIQQAKVQILPECVLPSTYDAETLMDRIKKQLREWDENLKDDSLPSNPIDFSYRVAACLPIDDVLRIQLLKIGSAIQRLRCELDIMNKCTSLCCKQCQETEITTKNEIFSLSLCGPMAAYVNPHGYVHETLTVYKACNLNLIGRPSTEHSWFPGYAWTVAQCKICASHIGWKFTATKKDMSPQKFWGLTRSALLPTIPDTEDEISPDKVILCL
notes: also called CRBNΔ3; cytosolic (untethered) minCRBN
B2: CRBN (wild-type; endogenous in Jurkat/293T cells or re-expressed in 293T-CRBNΔe5 cells) (other)
chain: MAGEGDQQDAAHNMGNHLPLLPAESEEEDEMEVEDQDSKEAKKPNIINFDTSLPTSHTYLGADMEEFHGRTLHDDDSCQVIPVLPQVMMILIPGQTLPLQLFHPQEVSMVRNLIQKDRTFAVLAYSNVQEREAQFGTTAEIYAYREEQDFGIEIVKVKAIGRQRFKVLELRTQSDGIQQAKVQILPECVLPSTMSAVQLESLNKCQIFPSKPVSREDQCSYKWWQKYQKRKFHCANLTSWPRWLYSLYDAETLMDRIKKQLREWDENLKDDSLPSNPIDFSYRVAACLPIDDVLRIQLLKIGSAIQRLRCELDIMNKCTSLCCKQCQETEITTKNEIFSLSLCGPMAAYVNPHGYVHETLTVYKACNLNLIGRPSTEHSWFPGYAWTVAQCKICASHIGWKFTATKKDMSPQKFWGLTRSALLPTIPDTEDEISPDKVILCL
B3: IKZF3 degron polypeptide, amino acids 130-189 A153M (HaloTag fusion for BRET) (other, not shown: large carriers)
chain: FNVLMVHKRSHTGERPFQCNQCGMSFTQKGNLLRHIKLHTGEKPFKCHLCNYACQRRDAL
notes: also called IKZF3 A153M; A153M-substituted form of the IKZF3 degron
B4: CRBN-Nanoluciferase (NLuc) (other, not shown: large carriers)
chain: B2 chain
notes: Expressed inside transfected 293T cells for NanoBRET (intracellular, not on the surface); also called wild-type CRBN; wtCRBN

Assays:
IKZF3aa130-189-HaloTag = biological target: T1, IKZF3aa130-189-HaloTag (Homo sapiens, UniProt A2VDW9 130-189 (bovine entry)); assay: NanoBRET in 293T-CRBNΔe5 cells, pomalidomide dose-response; the Kd is a pomalidomide concentration
T1 construct: Expressed in transfected 293T cells for NanoBRET; labelled with HaloTag NanoBRET 618 ligand; also called IKZF3 degron; degron
T1 sequence (A2VDW9 130-189): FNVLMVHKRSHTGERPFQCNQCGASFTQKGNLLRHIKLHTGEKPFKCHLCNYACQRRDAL
Protocol: (§1) Cells were then trypsinized and seeded into 96 well plates, at 40,000 cells per well. The BRET assay was performed per manufacturer's instructions (Promega™). In brief, cells were incubated for 2 hours with varying concentrations of Pomalidomide or DMSO, 10 μM MG132, and 100 nM HaloTag NanoBRET 618 Ligand. NanoBRET Nano-Glo substrate was added and donor (460 nm) and acceptor (618 nm) emission were measured within 10 minutes (EnVision, Perkin Elmer). Mean corrected milliBRET units (mBU) was calculated.

[1] = biological target: CD28-CD3z-IKZF3 (eGFP fusion); assay: cell-based or functional assay
CD28-IKZF3 (eGFP fusion) = assay: cell-based or functional assay
[2] = biological target: IKZF3 degron-eGFP fusion (IKZF3 degron-GFP-IRES-mCherry reporter) (Homo sapiens, UniProt A2VDW9 130-189 (bovine entry)); assay: cell-based or functional assay
Chain of IKZF3 degron-eGFP fusion (IKZF3 degron-GFP-IRES-mCherry reporter) (A2VDW9 130-189): as above

[3] = biological target: B4; assay: NanoBRET across a range of pomalidomide concentrations
Protocol: as §1

## B1
IKZF3aa130-189-HaloTag
  apparent Kd (pomalidomide-dependent dimerization): 30 nM

## B2
[1]
  EC50 of pomalidomide-dependent degradation (eGFP/mCherry ratio normalized to DMSO), Jurkat T cells: 8.2 nM
CD28-IKZF3 (eGFP fusion)
  EC50 of pomalidomide-dependent degradation (eGFP/mCherry ratio normalized to DMSO), Jurkat T cells: 23.5 nM
[2]
  EC50 of pomalidomide-dependent degradation (eGFP/mCherry ratio normalized to DMSO), Jurkat T cells: 0.42 nM

## B3
[3]
  binding result: binds

## B4
IKZF3aa130-189-HaloTag
  apparent Kd (pomalidomide-dependent dimerization): 30 nM
